In assay [1] the target is NY-ESO TCR with the D111K modification in the TRBC constant region (human). Kind of assay: anti-TCR negative selection of T cells, flow cytometry.
Assay [2] has as its target HIT receptor with the D111K mutation in the TCR beta constant region (human). Kind of assay: anti-TCR bead negative selection of T cells, cell count and flow cytometry (FIG. 7).
In assay [3] the target is NY-ESO TCR with the D111K modification in the TRBC constant region (human). Kind of assay: flow cytometry of CD8+ T cells, FITC-BW242/412 against PE NY-ESO dextramer (FIG. 9).
Assay [4] deals with unmodified NY-ESO TCR (wild-type TCR beta constant domain) (human). The description is as above.

Experimental findings from US20260256840A1 are described below.

In the case of BW242/412 anti-TCR antibody, in assay [1], the % recovery post purification (BW242/412 negative selection) is 80%. In assay [2], this substance registered a % recovery of HIT+ cells after BW242/412 negative selection (cells not bound by the antibody) of 57.7%. For the same substance, the % of the NY-ESO dextramer-positive population not stained by the anti-TCR antibody in assay [3] was found to be 60%; in assay [4] it was 0%.
